Legend:
Assay in all cases: micro-array, phage-presented peptide on printed CK
MCP-2 (CCL8) = target: T1, MCP-2 (CCL8) (UniProt P80075 24-99)
T1 construct: Bought chemokine
T1 sequence (looked up): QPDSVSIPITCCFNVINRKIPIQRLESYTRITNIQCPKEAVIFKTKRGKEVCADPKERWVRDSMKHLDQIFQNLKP
Description: (§1) (1) Printing: Chemokine (CK) solution (in water) was serially diluted with Print Reagent (GenTel BioSurfaces USA) to final concentrations of 50 μg and 25 μg/ml. BSA/BSA-Biotin control solutions (in water) were diluted with Print Reagent to 100 μg/ml. Amplified stock of M13 phage control (M13KEgIII Cloning Vector, New England Biolabs, Cat.No.E8101S) was stored in Tris Buffered Saline (TBS; pH7.5, 4° C.) and diluted with Print Reagent to the working titre (10^8 pfu/μl). An automated spotting robot (16 pin print tool, 0.4mm head; BioRobotics, UK) was used to print the CK/BSA control/M13 control, 5 repeats per sample (CK 25 μg/ml and 50 μg/ml; BSA 100 μg/ml; M13 20 μl), on PATH Protein Microarray Slides (GenTel, Prod.No.2-1005/-1025) at […], and 50-70% relative humidity. Printed micro-array slides were stored at Room Temperature (RT) or 4° C. for at least 24 h before use.
(§2) (2) Blocking: Block Buffer (500 μl/partition; PATHblock, GenTel, Prod.No.2-1014) was applied to the slide for 1 hour at room temp (RT). After removal of Block Buffer, the slide was air dried for 25 minutes;
(§3) (11) Analysis: Quantitative analysis of micro-array was performed by the SpotReader program of Niles Scientific (USA) and presented as Relative Fluorescence (RF) as a function of CK concentration. Micro-array readout (Cy3 fluorescence) was quantified to determine the relative binding affinities of a CBP for the CKs and by inference, the specificity of the CBP for binding to a CK.

TECK (CCL25) = target: T2, TECK (CCL25) (UniProt O15444 24-150)
T2 construct: Bought chemokine
T2 sequence (looked up): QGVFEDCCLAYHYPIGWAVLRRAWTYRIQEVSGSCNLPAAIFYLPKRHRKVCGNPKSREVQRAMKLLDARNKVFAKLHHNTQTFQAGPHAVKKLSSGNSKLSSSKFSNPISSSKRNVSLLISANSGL
Description: as §1, §2, §3

Eotaxin (CCL11) = target: T3, Eotaxin (CCL11) (UniProt P51671 24-97)
T3 construct: Bought chemokine
Description: as §1, §2, §3

MCP-1 (CCL2) = target: T4, MCP-1 (CCL2) (UniProt P13500 24-99)
T4 construct: Bought chemokine
Description: as §1, §2, §3

MCP-4 (CCL13) = target: T5, MCP-4 (CCL13) (UniProt Q99616 24-98)
T5 construct: Bought chemokine
Description: as §1, §2, §3

BCA-1 (CXCL13) = target: T6, BCA-1 (CXCL13) (UniProt O43927 23-109)
T6 construct: Bought chemokine
T6 sequence (looked up): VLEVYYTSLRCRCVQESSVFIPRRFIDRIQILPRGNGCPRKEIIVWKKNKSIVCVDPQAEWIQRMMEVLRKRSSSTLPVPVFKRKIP
Description: as §1, §2, §3

RANTES (CCL5) = target: T7, RANTES (CCL5) (UniProt P13501 24-91)
T7 construct: Bought chemokine
T7 sequence (looked up): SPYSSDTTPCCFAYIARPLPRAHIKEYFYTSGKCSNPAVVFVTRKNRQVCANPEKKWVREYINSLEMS
Description: as §1, §2, §3

Lymphotactin (XCL-1) = target: T8, Lymphotactin (XCL-1) (UniProt P47992 23-114, limits assumed)
T8 construct: Bought chemokine
T8 sequence (looked up): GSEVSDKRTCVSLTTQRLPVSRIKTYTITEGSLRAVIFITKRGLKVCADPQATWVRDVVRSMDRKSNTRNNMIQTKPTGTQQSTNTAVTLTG
Description: as §1, §2, §3

I-TAC (CXCL11) = target: T9, I-TAC (CXCL11) (UniProt O14625 22-94)
T9 construct: Bought chemokine; also called I-TACK
T9 sequence (looked up): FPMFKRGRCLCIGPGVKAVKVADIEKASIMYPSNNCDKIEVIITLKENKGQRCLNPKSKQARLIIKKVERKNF
Description: as §1, §2, §3

Eotaxin 2 (CCL24) = target: T10, Eotaxin 2 (CCL24) (UniProt O00175 27-104, limits assumed)
T10 construct: Bought chemokine
T10 sequence (looked up): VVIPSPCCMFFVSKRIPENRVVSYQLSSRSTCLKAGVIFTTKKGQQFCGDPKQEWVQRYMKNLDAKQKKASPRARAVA
Description: as §1, §2, §3

Eotaxin 3 (CCL26) = target: T11, Eotaxin 3 (CCL26) (UniProt Q9Y258 24-94)
T11 construct: Bought chemokine
T11 sequence (looked up): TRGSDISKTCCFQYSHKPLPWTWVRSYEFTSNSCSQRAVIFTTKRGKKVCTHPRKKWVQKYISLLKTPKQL
Description: as §1, §2, §3

Mig (CXCL9) = target: T12, Mig (CXCL9) (UniProt Q07325 23-125)
T12 construct: Bought chemokine
T12 sequence (looked up): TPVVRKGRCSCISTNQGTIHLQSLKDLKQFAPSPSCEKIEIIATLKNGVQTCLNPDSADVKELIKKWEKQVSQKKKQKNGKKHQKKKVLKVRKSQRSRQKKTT
Description: as §1, §2, §3

GRO-β (CXCL2) = target: T13, GRO-β (CXCL2) (UniProt P19875 35-107)
T13 construct: Bought chemokine
T13 sequence (looked up): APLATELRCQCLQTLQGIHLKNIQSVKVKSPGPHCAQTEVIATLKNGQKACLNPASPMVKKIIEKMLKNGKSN
Description: as §1, §2, §3

Exodus-2 (CCL21) = target: T14, Exodus-2 (CCL21) (UniProt O00585 24-134)
T14 construct: Bought chemokine
T14 sequence (looked up): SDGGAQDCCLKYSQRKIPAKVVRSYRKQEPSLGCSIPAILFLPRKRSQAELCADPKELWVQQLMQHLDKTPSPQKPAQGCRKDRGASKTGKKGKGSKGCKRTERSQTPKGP
Description: as §1, §2, §3

SDF-1β (CXCL12) = target: T15, SDF-1β (CXCL12) (UniProt P48061 22-93)
T15 construct: Beta isoform of CXCL12; also called SDFβ
Description: as §1, §2, §3

IP-10 (CXCL10) = target: T16, IP-10 (CXCL10) (UniProt P02778 22-98)
T16 construct: Bought chemokine
T16 sequence (looked up): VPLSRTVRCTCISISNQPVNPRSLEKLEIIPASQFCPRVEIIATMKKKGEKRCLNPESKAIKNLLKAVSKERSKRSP
Description: as §1, §2, §3

I-309 (CCL1) = target: T17, I-309 (CCL1) (UniProt P22362 23-96, limits assumed)
T17 construct: Bought chemokine
T17 sequence (looked up): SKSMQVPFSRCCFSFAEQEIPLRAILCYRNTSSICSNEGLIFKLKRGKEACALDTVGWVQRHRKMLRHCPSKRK
Description: as §1, §2, §3

T5 sequence (Q99616 24-98 limits assumed): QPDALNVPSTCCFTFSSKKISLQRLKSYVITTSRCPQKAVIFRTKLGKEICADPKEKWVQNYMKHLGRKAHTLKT
T4 sequence (P13500 24-99 limits assumed): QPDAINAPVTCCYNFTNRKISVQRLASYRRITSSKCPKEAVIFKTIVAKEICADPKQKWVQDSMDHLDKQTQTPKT
T3 sequence (P51671 24-97 limits assumed): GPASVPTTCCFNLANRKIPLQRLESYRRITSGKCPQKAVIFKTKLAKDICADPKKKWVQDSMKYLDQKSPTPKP
T15 sequence (P48061 22-93 limits assumed): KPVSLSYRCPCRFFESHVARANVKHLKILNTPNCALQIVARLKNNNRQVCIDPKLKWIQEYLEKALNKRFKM

Binder	binding result (MCP-2 (CCL8))	binding result (TECK (CCL25))	binding result (Eotaxin (CCL11))	binding result (MCP-1 (CCL2))	binding result (MCP-4 (CCL13))	binding result (BCA-1 (CXCL13))	binding result (RANTES (CCL5))	binding result (Lymphotactin (XCL-1))	Relative Fluorescence Units (RFU) (I-TAC (CXCL11))	binding result (Eotaxin 2 (CCL24))	binding result (Eotaxin 3 (CCL26))	Relative Fluorescence Units (RFU) (Mig (CXCL9))	binding result (GRO-β (CXCL2))	binding result (Exodus-2 (CCL21))	Relative Fluorescence Units (RFU) (MCP-2 (CCL8))	Relative Fluorescence Units (RFU) (MCP-4 (CCL13))	binding result (IP-10 (CXCL10))	binding result (I-TAC (CXCL11))	binding result (Mig (CXCL9))	binding result (I-309 (CCL1))	other results
SYYDDVGL [Phage-Presented Peptide 27 (Ph-p27)]	binds	binds	binds	binds	binds	binds	binds	binds	> 15000 RFU	binds	binds	> 15000 RFU	binds	binds							
WVFGNAMCK (also called Ph-p28; Ph-p 8) [Phage Presented (Ph) Peptide (p) 8]															> 25000 RFU	> 25000 RFU					
WVFGNAACK [Phage-Presented Peptide 8.7 (Ph-p8.7)]		binds	binds			binds		binds			binds				> 15000 RFU	> 15000 RFU	binds	binds	binds	binds	binding result (SDF-1β (CXCL12)): binds
WVFG [Phage-Presented Peptide 8.4 (Ph-p8.4)]		binds	binds			binds		binds			binds				> 15000 RFU	> 15000 RFU	binds	binds	binds	binds	
DRYLNIVHAT [Phage-Presented Peptide 18 (Ph-p18)]	binds	binds	binds	binds	binds	binds	binds	binds	> 9000 RFU	binds	binds	> 9000 RFU	binds								
WVFGSGLCK [Phage-Presented Peptide 15 (Ph-p15)]	binds	binds	binds	binds	binds	binds	binds	binds	> 15000 RFU	binds	binds	> 15000 RFU	binds	binds							Relative Fluorescence Units (RFU) (IP-10 (CXCL10)): > 15000 RFU

— patent US20100227824A1 (SYMTHERA CANADA, published 2010)
